Laboratory results reported in patent publication US20200172905, “RNA APTAMERS AGAINST TRANSFERRIN RECEPTOR (TFR)” (CITY OF HOPE, published 2020).

Target: Transferrin receptor (TfR, TFRC) (UniProt P02786 SEQ:89-760)
Assay: SPR; value only in figure, stated to be in similar range to TR14; Biacore T100, biotinylated aptamer on SA chip, 30 mM Tris-HCl pH 7.5, 150 mM NaCl, 5 mM MgCl2
Details: SELEX was against the extracellular domain; chain copies: 2; label: biotin (SPR), Cy3 (cell imaging)
Protocol: The kinetics of TR14 S1-3 were analysed by surface plasmon resonance (SPR) technology. The Biacore T100 (GE Healthcare, Uppsala, Sweden) was used to monitor label-free the aptamer-transferrin receptor interactions in real time. Biotinylated aptamers were coupled to a streptavidin-coated Biocore chip (SensorChip SA, BR-1003-98, General Electric Company) by an injection in binding buffer at concentration of 25 μg/mL (30 mM Tris-HCl, pH 7.5, 150 mM NaCl, 5 mM MgCl2) at 10 uL/min. The RNA was refolded by heating to 65° C. followed by cooling to 37° C. before immobilization. To measure binding kinetics, five concentrations of purified transferrin receptor protein were injected at a flow rate of 10 uL per minute. After binding, the surface was regenerated by injecting 50 mM NaOH at flow rate of 15 μL per minutes for 20 seconds. Data from the control surface were subtracted. BlAevaluation software (GE Healthcare) was used for analysis. The binding data were fit to a 1:1 binding with a mass transfer model to calculate kinetic parameters.

Chain of Transferrin receptor (TfR, TFRC) (P02786 89-760): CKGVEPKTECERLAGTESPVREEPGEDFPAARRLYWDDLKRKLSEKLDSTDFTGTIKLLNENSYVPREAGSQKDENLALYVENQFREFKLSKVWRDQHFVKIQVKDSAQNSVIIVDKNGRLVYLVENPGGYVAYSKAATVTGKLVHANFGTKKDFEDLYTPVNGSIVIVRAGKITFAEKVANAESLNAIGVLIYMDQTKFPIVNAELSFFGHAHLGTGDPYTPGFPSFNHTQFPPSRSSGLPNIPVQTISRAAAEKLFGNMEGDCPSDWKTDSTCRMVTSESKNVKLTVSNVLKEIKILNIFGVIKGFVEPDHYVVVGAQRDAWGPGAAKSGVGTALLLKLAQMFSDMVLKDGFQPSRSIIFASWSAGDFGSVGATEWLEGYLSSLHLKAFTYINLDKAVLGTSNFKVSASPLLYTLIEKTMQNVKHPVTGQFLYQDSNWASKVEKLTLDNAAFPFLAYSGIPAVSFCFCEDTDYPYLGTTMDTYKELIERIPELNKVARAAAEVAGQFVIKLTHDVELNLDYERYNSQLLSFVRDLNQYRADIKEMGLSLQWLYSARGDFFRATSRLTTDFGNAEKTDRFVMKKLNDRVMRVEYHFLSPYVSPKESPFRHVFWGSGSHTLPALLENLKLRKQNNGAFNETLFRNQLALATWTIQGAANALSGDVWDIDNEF

UUUAUUCACAUUUUUGAAUUGA (ssRNA, 2'-F (library of 2'F RNAs; positions not stated)) [TR14 S1-3 (22-mer)]: binds.
